For one sequence, binding signal (fold higher affinity than p19 (up to)) results are on record in PMC5570165.

In this series the test system is p19 N15K,G16R. In words: BLI / MSD-SET. Particulars: 2'-OMe at select positions, BLI: citrate-phosphate buffer, 100 mM NaCl, 0.1% BSA, 0.002% Tween-20, 37 C (pH of the siRNA assay not stated), MSD-SET: PBS, 100 pM siRNA, 24 h ….

Take “AACGCUGGGCGUUAAUCAATT / UUGAUUAACGCCCAGCGUUTT [Seq 7 siRNA]”: the binding signal (fold higher affinity than p19 (up to)) came to 160.
